From article PMC12171143, “The Arabidopsis E3 ubiquitin ligase PUB13 synergistically interacts with BON1 to regulate plant flowering and immunity” (Frontiers in Plant Science, 2025) come the findings set out here.

The target of the assay is T1, GST-PUB13 (Arabidopsis thaliana, UniProt Q9SNC6 1-660).
T1 construct: also called PUB13-GST; source: purified fusion protein from pGEX-6p-1; E. coli BL21 is named for the PUB13 construct in pGEX-6P-1 of the ubiquitination assay
T1 sequence (looked up): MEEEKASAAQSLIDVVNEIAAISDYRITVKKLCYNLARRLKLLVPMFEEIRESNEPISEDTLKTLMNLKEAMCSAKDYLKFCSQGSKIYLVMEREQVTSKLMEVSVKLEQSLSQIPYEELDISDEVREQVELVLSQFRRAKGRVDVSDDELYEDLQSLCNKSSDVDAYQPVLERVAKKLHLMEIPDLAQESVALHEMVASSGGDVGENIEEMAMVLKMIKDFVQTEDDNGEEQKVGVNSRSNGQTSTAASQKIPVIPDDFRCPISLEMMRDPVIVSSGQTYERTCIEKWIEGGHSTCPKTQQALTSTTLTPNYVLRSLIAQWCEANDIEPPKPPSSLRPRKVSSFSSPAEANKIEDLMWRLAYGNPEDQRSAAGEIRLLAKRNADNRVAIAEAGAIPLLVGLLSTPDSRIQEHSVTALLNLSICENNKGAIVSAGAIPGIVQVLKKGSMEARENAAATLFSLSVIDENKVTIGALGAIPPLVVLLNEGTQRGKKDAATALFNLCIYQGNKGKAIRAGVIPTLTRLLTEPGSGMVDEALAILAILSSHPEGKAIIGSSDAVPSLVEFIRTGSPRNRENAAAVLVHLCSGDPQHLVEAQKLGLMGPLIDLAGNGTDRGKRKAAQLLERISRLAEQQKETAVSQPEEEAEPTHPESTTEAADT
Description: pull-down; purified fusion proteins mixed, glutathione Sepharose beads 4 h at 4°C, five washes with 1x TBST, eluate blotted with anti-MBP. The following applies: both partners purified.

B1: MBP-BON1 (natural protein, Arabidopsis thaliana, UniProt Q941L3 1-578, looked up)
chain: MGNCCSDVASGAGATAGVGGSGSSAALGATNDALDYYLKSKGFNGLFSQIELSFSASNLRDRDVLSKSDPMVVVYQKEKDATLSEVFRSEVVLNSLAPKWIKKFIVAYHFETVQTLVFRVYDVDTKFQNSREEMLKLDEQQFLGEATCALSEIITKSTRTSTLELKRKDGFAPQAQPHHGKLIIHAEESLASKISTEIVFRCSNLESKDLFSKSDPFLVVSKIVEHGTPIPVSKTEVRKNDLNPIWKPVFLSVQQVGSKDSPVIIECSDFNSNGKHSLIGKVQKSLSDLEKLHLAGQGINFSLPTGAGQNKVLKSQLFVDKFTETVHHTFLEYLASGFELNFMVAIDFTASNGNPRLPDSLHYIDPSGRLNAYQRAIMDVGEVLQFYDSDKRFPAWGFGARPIDAPVSHCFNLNGSSSYSEVDGIQGIMTSYTSALFNVSLAGPTLFGPVINAAAMIASASLAQGSRKYYVLLIITDGVITDLQETKDALVSASDLPLSILIVGVGGADFKEMEILDADKGERLESSSGRLASRDIVQFVALRDVQYGEISVVQALLAELPSQFLTYMRIRNMKPIPP
notes: source: purified fusion protein from pMAL-c4x
On to B1, for which the binding result was “binds”.
